Experimental data reported in patent US20240142454A1 (UNIVERSITY OF KENTUCKY RESEARCH FOUNDATION, published 2024).
Where no end group is shown, it is not given here.

B1: mouse monoclonal antibody 26A6 (antibody, mouse IgG2b, kappa, V domains shown)
VH: EVQLQQSGPVLVKPGASVKMSCKASGYTFTDFYLNWVKQSHGKTLEWIGVINPYNGITRYNQKFGGTATLTVDKSSSTAYMELNSLTSEDSAVYYCSRGGKTYYFDYWGQGTTLTVSP
VL: DVVMTQSPLSLPVSLGDQASISCRSSQSLVHSNGNTYLHWYLQKPGQSPKLLIYKVSNRFSGVPDRFSGSGSGTDFTLKINRVEAEDLGVYFCSQSTHVPPVTFGGGTKLEIKR
notes: used as hybridoma supernatant or Protein G-purified; also called 26A6 mAb; hybridoma ATCC PTA-126751
B2: immunizing peptide CGGGESVLTLK (peptide)
peptide: CGGGESVLTLK
modifications: also: conjugated to KLH for immunization
notes: Conjugated to KLH for immunization; also called peptide antigen; peptide ESVLTLK424

Columns and labels:
[1] = molecular target: B2; assay: ELISA on the immunizing peptide
Protocol: These mice were selected for further boosting and fusion with a Sp2/0 myeloma partner. The resulting hybridomas were screened first in ELISA assays to the immunizing peptide and secondly in Western blot assays to the uncleaved and cleaved CN, to confirm that they selectively bound the cleaved CN. A positive clone was identified-26A6. This clone was developed/subcloned further and characterized as to isotype. 26A6 is an IgG2b with a kappa light chain.
ELISA assays were carried out at GenScript. The immunizing peptide itself was bound to plates at a concentration of 1 μg/ml, 100 μl per well and supernatants from the hybridomas were used to bind to the peptide. An anti-IgG-HRP conjugated secondary antibody was used to detect the primary 26A6 antibody.

[2] = molecular target: B1; assay: competition in immunofluorescence of human brain sections
Protocol: Slides were baked in a 40° C. oven overnight, then deparaffinized using SafeClear (Fisher Scientific, Hampton, NH), and rehydrated through a series of alcohols and finally into PBS. Antigen retrieval was carried out in pressurized decloaking chamber (BioCare Medical, Concord, CA), according to manufacturer's directions using the Borg antigen retrieval solution (BioCare Medical, Concord, CA). Following antigen retrieval, slides were washed 3× in PBS. For sections designated for staining with the β-amyloid antibody downstream, the sections were treated with 70% formic acid for 5 mins, then washed. All sections were treated with 3% H₂O₂ in methanol to block endogenous […] activity. Slides were washed in PBS and sections were either stained for immunofluorescence or immunohistochemistry.
For immunofluorescence, sections were incubated in blocking solution (PBS with 3% bovine serum albumin, 5% goat serum, and 0.05% Triton X 100) for 30 minutes, and incubated overnight at room temperature in primary antibody in that same blocking solution. Primary antibodies used were: rabbit anti-GFAP (1:200; catalog #12389, Cell Signaling Technology, Danviers, MA) and mouse 26A6 hybridoma supernatants diluted 1:5 or 10 ug/ml of purified 26A6 antibody. Sometimes 75 μg/ml immunizing peptide was included with the 26A6 antibody as a negative control. […]

B1: binds [1].

B2: binds [2].
